In this experiment the target is typhoid toxin B subunit PltB (Salmonella Typhi) (UniProt Q8Z6A3). Kind of experiment: crystal structure.

By stoichiometry N is commonly meant a count of units in the complex or per binding partner.

The substance “typhoid toxin B subunit PltB (from UniProt Q8Z6A3 1-137) (natural protein)” gave a stoichiometry N of 5.

For the origin of these results see paper PMC4258231.
